Data: US20230295310A1 (ABCELLERA BIOLOGICS, published 2023)

Tests used:
[1] = target: T1, cynomolgus monkey CD3 expressed on cyno primary T cells (cynomolgus monkey, UniProt Q95LI5 22-198; Q95LI8 22-171; Q95LI7 23-181); assay: flow cytometry, cyno primary T cells
T1 construct: whole, on cells; CD3 complex on purified cynomolgus monkey CD3 pan T cells; also called cyno CD3
Summary of the method: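 Values are fold over isotype: median fluorescence intensity of each antibody relative to isotype control after a 30-minute, 4° C incubation at 25 nM with CD3-bearing cells in PBS containing 2% FBS.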

[2] = target: T2, human CD3 expressed on cells (Jurkat cells; human primary T cells) (human, UniProt P07766 23-207; P04234 22-171; P09693 23-182); assay: flow cytometry, 25 nM, human primary T cells
T2 construct: whole, on cells
T2 sequence (P07766 23-207, chain 1 of 3): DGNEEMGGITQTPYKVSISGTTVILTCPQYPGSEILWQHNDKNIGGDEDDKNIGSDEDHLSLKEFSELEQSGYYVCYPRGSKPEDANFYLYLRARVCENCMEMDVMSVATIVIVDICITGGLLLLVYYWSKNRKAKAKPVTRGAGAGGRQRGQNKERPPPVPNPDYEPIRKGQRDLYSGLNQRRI
T2 sequence (P04234 22-171, chain 2 of 3): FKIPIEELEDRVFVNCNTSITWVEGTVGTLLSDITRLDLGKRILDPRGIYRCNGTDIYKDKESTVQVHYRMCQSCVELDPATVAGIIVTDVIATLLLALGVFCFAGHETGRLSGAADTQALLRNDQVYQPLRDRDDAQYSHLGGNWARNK
T2 sequence (P09693 23-182, chain 3 of 3): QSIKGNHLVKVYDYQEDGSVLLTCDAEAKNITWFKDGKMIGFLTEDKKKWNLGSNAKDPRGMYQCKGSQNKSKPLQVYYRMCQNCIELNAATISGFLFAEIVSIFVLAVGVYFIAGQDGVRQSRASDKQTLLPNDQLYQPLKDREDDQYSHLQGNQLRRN
Method: (§1) Purified antibodies were confirmed to bind CD3 expressed on cells using the CytoFLEX S or LX flow cytometers (Beckman Coulter). Antibodies were diluted to 25 nM in FACS buffer (PBS+2% FBS) and were incubated with CD3-expressing cells for 30 minutes at 4° C. […] The median fluorescence intensity of the binding signal for each antibody was normalized to the isotype control to obtain a fold over isotype value. An antibody with a fold over isotype (FOI) of ≥10 was considered to be positive for binding.

[3] = target: T2, human CD3 expressed on cells (Jurkat …); assay: flow cytometry, 25 nM, Jurkat cells
Method: as §1

T1 sequence (Q95LI5 22-198, chain 1 of 3): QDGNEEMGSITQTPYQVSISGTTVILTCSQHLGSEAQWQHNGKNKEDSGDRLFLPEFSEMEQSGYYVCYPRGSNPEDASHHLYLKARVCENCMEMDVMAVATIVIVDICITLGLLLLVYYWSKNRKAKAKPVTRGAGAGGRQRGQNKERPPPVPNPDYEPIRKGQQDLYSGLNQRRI
T1 sequence (Q95LI8 22-171, chain 2 of 3): as the sequence (P04234 22-171, chain 2 of 3) above, with I5V, N15K, I20V, S32T, D33N, I34N, T64A, S74N, V83L, H141R counted along it
T1 sequence (Q95LI7 23-181, chain 3 of 3): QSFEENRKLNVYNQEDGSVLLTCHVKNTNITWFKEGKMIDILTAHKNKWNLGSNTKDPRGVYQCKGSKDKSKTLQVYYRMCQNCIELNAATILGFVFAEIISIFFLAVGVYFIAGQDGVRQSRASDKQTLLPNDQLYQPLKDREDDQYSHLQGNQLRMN

Binding (FOI) [2] [FOI] | Binding (FOI) [3] [FOI] | Binder | binding result [1]
184 | 165 | mAb 189 (antibody, V domains shown, VH/VL only) VH: QVQLVESGGGVVQPGRSLRLSCAASGFTFSGYGMHWVRQAPGKGLEWVAIIYYDGKNKYYADSVKGRFTISRDNSKSTLYLQMNSLGADDTAVYYCTRGKGYNWFDPWGQGTLVTVSS VL: not shown | no binding (tested: FOI <10 (FOI >=10 = positive); 25 nM)
231 | 182 | mAb 198 (antibody, V domains shown, VH/VL only) VH: QVQLVESGGGVVQPGGSLRLSCAASGFTFSGYGMHWVRQAPGKGLEWVAIIWYNGRKTYYAESVKGRFTISRDNSKNTLSLQMNSLRIEDTAVYYCTTGQGYNWFDPWGQGTLVTVSS VL: EIVMTQSPATLSVSPGERATLSCRASQSVSSNLAWYQQKPGQAPRLLIYGASTRATGIPARFSGSGSGTEFTLTISSLQSEDFAVYYCQQFNAWPLTFGGGTKMEIK | no binding (tested: FOI <10 (FOI >=10 = positive); 25 nM)
210 | 166 | mAb 201 (antibody, V domains shown, VH/VL only) VH: QVQLVESGGGVVQPGRSLRLSCAASGFTFSGYGMHWVRQAPGKGLEWVAIIYYNGKKEYYADSVKGRFTISRDNSKNTLYLQMNSLRAEDTAVYYCTRGEGYNWFDPWGQGTLVTVSS VL: EIVMTQSPATLSVSPGERATLSCRASQSVSSSLAWYQQKPGQAPRLLIYGASTRATGIPARFSGSGSGTEFTLTISSLQSEDFAVYYCQQYNNWPLTFGGGTKVEIK | no binding (tested: FOI <10 (FOI >=10 = positive); 25 nM)
285 | 201 | mAb 203 (antibody, V domains shown, VH/VL only) VH: QVQLVESGGGVVQPGGSLRLSCAASGFTFRGYGMHWVRQAPGKGLEWVAIIYYNGRKTYYAESVKGRFTISRDNSKNTLSLQMNSLRVEDTAVYYCTAGQGYNWFDPWGQGTLVTVSS VL: EIVMTQSPATLSVSPGERATLSCRASQSVSSNLAWYQQKPGQAPRLLIYGASTRATGIPARFSGSGSGTEFTLTISSLQSEDFAVYYCQQFNAWPLTFGGGTKMEIK | no binding (tested: FOI <10 (FOI >=10 = positive); 25 nM)
223 | 176 | mAb 192 (antibody, V domains shown, VH/VL only) VH: QVQLVESGGGVVQPGRSLRLSCAASGFTFSGYGMHWVRQAPGKGLEWVAIIYYNGKKEYYADSVKGRFTISRDNSKNTLYLQMNSLRAEDTAVYYCTRGEGYNWFDPWGQGILVTVSS VL: EIVMTQSPATLSVSPGERATLSCRASQSVSSNLAWYQQKPGQAPRLLIYGASTRATGIPARFSGSGSGTEFTLTISSLQSEDFAVYYCKQYKNWPLTFGGGTKVEIK | no binding (tested: FOI <10 (FOI >=10 = positive); 25 nM)
260 | 183 | mAb 197 (antibody, V domains shown, VH/VL only) VH: QVQLVESGGGVVQPGGSLRLSCAASGFTFSGYGMHWVRQAPGKGLEWVAIIWYNGRKTYYAESVKGRFTISRDNSKNTLSLQMNSLRVEDTAVYYCTTGQGYNWFDPWGQGTLVTVSS VL: EIVMTQSPATLSVSPGERATLSCRASQSVSSNLAWYQQKPGQAPRLLIYGASTRATGIPARFSGSGSGTEFTLTISSLQSEDFAVYYCQQFNAWPLTFGGGTKMEIK | no binding (tested: FOI <10 (FOI >=10 = positive); 25 nM)
212 | 170 | mAb 191 (antibody, V domains shown, VH/VL only) VH: QVQLVESGGGVVQPGRSLRLSCAASGFTFSGYGMHWVRQAPGKGLEWVAIIYYNGKKEYYADSVKGRFTISRDNSKNTLYLQMNSLRAEDTAVYYCTRGEGYNWFDPWGQGTLVTVSS VL: EIVMTQSPATLSVSPGERATLSCRASQSVSSNLAWYQQKPGQAPRLLIYGASTRATGIPARFSGSGSGTDFTLTISSLQSEHFAVYYCQQYTNWPLTFGGGTKVEIK | no binding (tested: FOI <10 (FOI >=10 = positive); 25 nM)
181 | 162 | mAb 204 (antibody, V domains shown, VH/VL only) VH: QVQLVESGGGVVQSGRSLRLSCAASGFTFSGYGMHWVRQAPGKGLEWVAIVYYDGKNKYYADSVKGRFTISRDNSKNTLYLQMNSLRAEDTAVYYCVRGEGYNWFDPWGQGTLVTVSS VL: EIVMTQSPATLSVSPGERATLSCRASQSVSSNLAWYQQKPGQVPRLLIYGASTRATGIPARFSGSGSGTQFTLTISSLQSEDFAVYYCQQYNNWPLTFGGGTKVEIK | no binding (tested: FOI <10 (FOI >=10 = positive); 25 nM)
225 | 172 | mAb 199 (antibody, V domains shown, VH/VL only) VH: QVQLVESGGGVVQPGRSLRLSCAASGFTFSGYGMHWVRQAPGKGLEWVAIIYYNGKKEYYADSVKGRFTIFRDNSKNTLYLHMNSLRAEDTAVYYCTRGEGYNWFDPWGQGTLVTVSS VL: EIVMTQSPATLSVSPGERATLSCRASQSVSRNLAWYQQKPGQAPRLLIYGASTRATGIPARFSGSGSGTEFTLTISSLQSEDFAVYYCQQYNNWPLTFGGGTKVEIK | no binding (tested: FOI <10 (FOI >=10 = positive); 25 nM)

More lines, now with the values behind:

Binder | Binding (FOI) [2] [FOI] | Binding (FOI) [3] [FOI] | binding result [1]
mAb 285 (antibody, V domains shown, VH/VL only) VH: EVQLLESGGGLGQPGGSLRLSCAASGFTFSNYAMSWVRQAPGKGLEWVSVISGSGGDKNYADSVKGRFTISRDNSKNTLYLQMNSLRAEDTAVYYCAKKYSYYYYYMDVWGKGTTVTVSS VL: SYELTQPLSVSVALGQTARITCGGNNIGSKDVHWYQQKPGQAPVLVIYRDSNRPSGIPERFSGSNSGNTATLTISSAQAGDEADYYCQVWDSRTAVFGGGTQLTAL | 229 | 232 | no binding (tested: FOI <10 (FOI >=10 = positive); 25 nM)
mAb 287 (antibody, V domains shown, VH/VL only) VH: EVQLVESGGGVVRPGGSLRLSCAASGFTFDDYGMSWVRQAPGKGLEWVSGISWNGGSTGYADSVKGRFTISRDNAKNSLYLQMNSLRAEDTALYHCARDGVPVVKRRYYYYYMDVWGKGTTVTVSS VL: EIVLTQSPDFQSVTPKEKVTITCRASQSIGSSLHWYQQKPDQSPKLLIKYASQSFSGVPSRFSGSGSGTDFTLTINSLEAEDAATYYCHQSASLPQTFGQGTKVEIK | 107 | 156 | no binding (tested: FOI <10 (FOI >=10 = positive); 25 nM)
mAb 290 (antibody, V domains shown, VH/VL only) VH: EVQLVESGGGVVRPGGSLRLSCAASGFTFDDYGMSWVRQAPGKGLEWVSGISWNGGSTGYADSVKGRFTISRDNAKNSLYLQMNSLRAEDTALYHCARDGVPVVKRRYYYYYMDVWGKGTTVTVSS VL: EIVLTQSPDFQSVTPKEKITITCRASQSIGSSLHWYQQKPDQSPKLLIKYASQSFSGVPSRFSGSGSGTDFTLTINSLEAEDAATYYCHQSASLPQTFGQGTKVEIK | 99.8 | 135 | no binding (tested: FOI <10 (FOI >=10 = positive); 25 nM)
mAb 286 (antibody, V domains shown, VH/VL only) VH: EVKLVESGGGVVRPGGSLRLSCAASGFTFDDYGMSWVRQAPGKGLEWVSGISWNGGSTGYADSVKGRFTISRDNAKNSLYLQMNSLRAEDTALYHCARDGVPVVKRRYYYYYMDVWGKGTTVTVSS VL: EIVLTQSPDFQSVTPKEKVTITCRASQSIGSSLHWYQQKPDQSPKLLIKYASQSFSGVPSRFSGRGSGTDFTLTINSLEAEDAATYYCHQSGSLPQTFGQGTKVEIK | 185 | 232 | no binding (tested: FOI <10 (FOI >=10 = positive); 25 nM)
mAb 170 (antibody, V domains shown, VH/VL only) VH: EVQLVESGGGLVRPGRSLRLSCAASGFTFDDYTMHWVRQAPGKGLEWVSGISWNSGSIGYADSVKGRFTISRDNAKNSLYLQMNSLRAEDTALYYCSKDSSGYGYYLNYSLDVWGKGTTVTVSS VL: not shown | 120 | 117 | no binding (tested: FOI <10 (FOI >=10 = positive); 25 nM)
mAb 174 (antibody, V domains shown, VH/VL only) VH: EVQLVESGGGLVQPGGSLRLSCAASGFTFSSNWMSWVRQAPGKGLEWVANIKQDGSEKYSVDSVKGRFTISRDNAKNSLYLQMNSLRAEDTAVYYCARDRSRNYYWYFDLWGRGTLVTVSS VL: not shown | 231 | 130 | no binding (tested: FOI <10 (FOI >=10 = positive); 25 nM)
mAb 175 (antibody, V domains shown, VH/VL only) VH: EVELVESGGGLVQPGGSLRLSCAASGFTFSSNWMSWVRQAPGKGLEWVANIKQDGSEKYYVDSVKGRFTISRDNAKNSLYLKMNSLRAEDTAVYYCARDCSSNWYWYFDLWGRGTLVTVSS VL: not shown | 118 | 96.6 | no binding (tested: FOI <10 (FOI >=10 = positive); 25 nM)
mAb 188 (antibody, V domains shown, VH/VL only) VH: QVQLVESGGGVVQPGRSLRLSCAASGFTFSGYGMHWVRQAPGKGLEWVAIIYYNGKKEYYADSVKGRFTISRDNSKNTLYLQMNSLRAEDTAVYYCTRGEGYNWFDPWGQGTLVTVSS VL: not shown | 216 | 171 | no binding (tested: FOI <10 (FOI >=10 = positive); 25 nM)
mAb 273 (antibody, V domains shown, VH/VL only) VH: EVQLVESGGGLVQPGESLKLSCTASGFTFSVSAIHWVRQASGKGLEWVGRIRSKANSYATAYVASVKGRFTLSRDDSKNTAYLQMNSLKTEDTAVYYCSSYYFVSGTYYNHWGQGTLVTVSS VL: DIQMTQSPSSLSASVGDRVTITCRASQGIRYDLGWYQQKPGRAPKRLIHSVSSLQSGVPSRFSGSGSGTEFTLTISSLQPEDFATYYCLQHNVNPCTFGQGTKLEIK | 24.2 | 53.1 | 
